Target: the molecule itself
Experiment: SEC; purified TtHPF without ribosome on Superdex200 Increase 10/300 in buffer F (20 mM Hepes/KOH pH 7.5, 100 mM KCl, 10% v/v glycerol, 1 mM DTT); elution volume compared to standard proteins

B1: Thermus thermophilus hibernation-promoting factor (TtHPF) (natural protein, UniProt Q5SIS0 1-186, looked up)
chain: MNIYKLIGRNLEITDAIRDYVEKKLARLDRYQDGELMAKVVLSLAGSPHVEKKARAEIQVDLPGGLVRVEEEDADLYAAIDRAVDRLETQVKRFRERRYVGKRHSYQGPPPPEVRDLEALRKPEEEEGPRIVRVKRFEMKPMDPEEAAFQMEALGHSFFVFRNAKTDEINVIYRRKDGNYGLIEPA
notes: Hibernation-promoting factor TtHPF of Thermus thermophilus, UniProt Q5SIS0; gene amplified from genomic DNA with primers from the start codon to the stop codon; residues 2-122 (NTD and linker) and 129-185 (CTD) were modelled in the cryo-EM maps; The forward primer encodes a TEV site (ENLYFQG) directly before Met1, so a Gly probably remains at the N-terminus after TEV cleavage (surmised); The …
stoichiometry N: 2
